The supplement of paper PMC10126150
± gives the standard deviation of the averaged measurements.

test system: ATP; test: switch fluorescence ratio, 500 uM ATP over buffer (Cy3 cluster intensity, sum of 5 cycles each) (fold (ratio)); higher = stronger signal-on switching upon ATP binding; sequences stand for … in TCGTCGGCAGCGTCAGATGTGTATAAGAGACAGTTTTTTTTTTTTTTTTTTTTTTTTT…TC; details: aptamer strand: ATP DNA aptamer (quencher-CACCTGGGGGAGTATTGCGGAGGAAGG + anchor), 100 nM annealed; ATP concentration: 500 uM
Procedure, shortened: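 The quencher-labelled ATP aptamer, at 100 nM, was annealed to Cy3-labelled switching-strand clusters on a modified Illumina MiSeq flow-cell. The clusters were imaged in selection buffer, then after 15 min with 500 uM ATP at 22 °C, and this buffer/ATP cycle ran five times with NaOH stripping and re-annealing between runs. Per-cluster fluorescence ratios, summed target-cycle over summed buffer-cycle Cy3 intensity, were averaged per switch-domain sequence. Clusters outside 100-1000 RFU were excluded.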
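Note: ATP exposure 15 min at 22 °C before imaging.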

AGTATAGCGA and AGTATATAC are within error of each other in switch fluorescence ratio: 1.01 ± 0.035 for the first, 1.02 ± 0.029 for the second.

AGTATCATGT and AGTATCATTT are within error of each other in switch fluorescence ratio: 1.02 ± 0.063 for the first, 0.952 ± 0.02 for the second.

AGTATGACGG and AGTATGTAGC are within error of each other in switch fluorescence ratio: 0.986 ± 0.036 for the first, 0.997 ± 0.032 for the second.

First: AGTATGTGAA
Second: AGTATTCAAA
The switch fluorescence ratio of the first is lower: 0.97601 ± 0.00029 for the first, 1 ± 0.018 for the second.

First: AGTATTCTTA
Second: AGTATTGCGA
The switch fluorescence ratio of the first is higher: 0.99324 ± 0.00072 for the first, 0.974 ± 0.01 for the second.

AGTATTGGGG and AGTATTTAGT are within error of each other in switch fluorescence ratio: 0.999 ± 0.025 for the first, 1.003 ± 0.0092 for the second.

AGTATTTTGC and AGTATTTTGT are within error of each other in switch fluorescence ratio: 0.969 ± 0.085 for the first, 0.974 ± 0.011 for the second.

AGTCAATGAC and AGTCAATTGC are within error of each other in switch fluorescence ratio: 0.968 ± 0.012 for the first, 1 ± 0.033 for the second.

AGTCAGATTC and AGTCATCACC are within error of each other in switch fluorescence ratio: 1 ± 0.058 for the first, 1.02 ± 0.023 for the second.

AGTCATCTGC and AGTCATGGAG are within error of each other in switch fluorescence ratio: 1 ± 0.013 for the first, 0.987 ± 0.042 for the second.

AGTCATGTGC and AGTCCCGCCT are within error of each other in switch fluorescence ratio: 0.979 ± 0.038 for the first, 1.12 ± 0.14 for the second.

AGTCCGATGT and AGTCCGTCTA are within error of each other in switch fluorescence ratio: 1.04 ± 0.038 for the first, 1.01 ± 0.05 for the second.

AGTCCTTGGA and AGTCGACGTA are within error of each other in switch fluorescence ratio: 0.99 ± 0.069 for the first, 1.04 ± 0.089 for the second.

AGTCGAGTGG and AGTCGATGTG are within error of each other in switch fluorescence ratio: 1.02 ± 0.047 for the first, 0.966 ± 0.025 for the second.

AGTCGATTTT and AGTCGCACGA are within error of each other in switch fluorescence ratio: 0.978 ± 0.012 for the first, 0.986 ± 0.016 for the second.

AGTCGGGCGG and AGTCGGGGTT are within error of each other in switch fluorescence ratio: 1 ± 0.026 for the first, 0.979 ± 0.01 for the second.

AGTCGGGTAC and AGTCGGTACG are within error of each other in switch fluorescence ratio: 1.04 ± 0.033 for the first, 0.994 ± 0.096 for the second.

AGTCTAAATT and AGTCTGACCA are the same in switch fluorescence ratio: 1.02 ± 0.011 for the first, 1.018 ± 0.005 for the second.

AGTCTGGATG and AGTCTGGTCC are within error of each other in switch fluorescence ratio: 0.96 ± 0.02 for the first, 0.987 ± 0.01 for the second.

AGTCTGTGCT and AGTCTTGCTG are within error of each other in switch fluorescence ratio: 0.97353 ± 0.00097 for the first, 0.989 ± 0.02 for the second.

AGTCTTTTGT and AGTCTTTTTT are within error of each other in switch fluorescence ratio: 0.997 ± 0.026 for the first, 1 ± 0.0038 for the second.

Compared with AGTGAAGCTG, AGTGAGAATC is higher in switch fluorescence ratio: 0.996 ± 0.027 for the first, 1.036 ± 0.0046 for the second.

AGTGAGGCGT and AGTGAGTCCG are within error of each other in switch fluorescence ratio: 0.984 ± 0.018 for the first, 0.996 ± 0.01 for the second.

AGTGAGTCTT and AGTGATAGAT are within error of each other in switch fluorescence ratio: 0.994 ± 0.032 for the first, 0.967 ± 0.023 for the second.

First: AGTGCAAAAG
Second: AGTGCAGGTT
The switch fluorescence ratio of the first is higher: 1.06 ± 0.029 for the first, 0.97386 ± 7.1e-05 for the second.

AGTGCGAAGG and AGTGCGGGGA are within error of each other in switch fluorescence ratio: 0.97211 ± 0.00025 for the first, 0.993 ± 0.04 for the second.

First: AGTGCGGGTC
Second: AGTGCTTCGT
The switch fluorescence ratio of the first is higher: 1.02 ± 0.012 for the first, 0.9905 ± 0.0094 for the second.

AGTGGAGGGG and AGTGGAGGTG are within error of each other in switch fluorescence ratio: 0.969 ± 0.029 for the first, 1.03 ± 0.043 for the second.

AGTGGCATGT and AGTGGCCGGG are within error of each other in switch fluorescence ratio: 0.986 ± 0.012 for the first, 1.01 ± 0.027 for the second.

AGTGGCGTGT and AGTGGGAAAG are within error of each other in switch fluorescence ratio: 0.988 ± 0.022 for the first, 0.965 ± 0.027 for the second.

First: AGTGGGCGCA
Second: AGTGGGGCAG
The switch fluorescence ratio of the first is higher: 1.04 ± 0.042 for the first, 0.986 ± 0.0071 for the second.

AGTGGGGCC and AGTGGGGCTT are within error of each other in switch fluorescence ratio: 1 ± 0.075 for the first, 0.985 ± 0.043 for the second.

AGTGGGGTTT and AGTGGGTGCT are within error of each other in switch fluorescence ratio: 0.976 ± 0.013 for the first, 1.02 ± 0.039 for the second.

AGTGGTCG and AGTGGTGATC are the same in switch fluorescence ratio: 1.04 ± 0.033 for the first, 1.04 ± 0.018 for the second.

Going from AGTGGTTCG to AGTGGTTGTG, the switch fluorescence ratio falls from 1 ± 0.018 to 0.973 ± 0.0069.

AGTGTAATAT and AGTGTATGGC are within error of each other in switch fluorescence ratio: 1 ± 0.023 for the first, 1.01 ± 0.032 for the second.

AGTGTCACGA and AGTGTCGCTG are the same in switch fluorescence ratio: 1.01 ± 0.015 for the first, 1.008 ± 0.0012 for the second.

AGTGTCTGC and AGTGTCTGGG are within error of each other in switch fluorescence ratio: 0.97 ± 0.087 for the first, 0.992 ± 0.022 for the second.

Going from AGTGTGAGGT to AGTGTGTGGA, the switch fluorescence ratio rises from 0.9858 ± 0.0091 to 1.04 ± 0.021.

Going from AGTGTGTGGG to AGTGTTCGTT, the switch fluorescence ratio falls from 1.02 ± 0.03 to 0.959 ± 0.023.

AGTGTTGGGC and AGTGTTTAAT are within error of each other in switch fluorescence ratio: 1.05 ± 0.023 for the first, 0.999 ± 0.032 for the second.

AGTGTTTTGG and AGTGTTTTTT are within error of each other in switch fluorescence ratio: 0.967 ± 0.024 for the first, 1.01 ± 0.046 for the second.

AGTTAACATG and AGTTAACTGT are within error of each other in switch fluorescence ratio: 0.978 ± 0.016 for the first, 0.996 ± 0.032 for the second.

AGTTAAGAGC and AGTTAAGATA are within error of each other in switch fluorescence ratio: 1.01 ± 0.038 for the first, 0.9907 ± 0.0031 for the second.

AGTTACATTG and AGTTACCA are within error of each other in switch fluorescence ratio: 1.02 ± 0.041 for the first, 1.054 ± 0.0038 for the second.

AGTTACCTCT and AGTTACGGGT are the same in switch fluorescence ratio: 1.03 ± 0.013 for the first, 1.033 ± 0.0032 for the second.

AGTTAGGAGG and AGTTAGGGGA are within error of each other in switch fluorescence ratio: 0.947 ± 0.053 for the first, 1.01 ± 0.038 for the second.

AGTTAGTGT and AGTTAGTTTT are within error of each other in switch fluorescence ratio: 0.978 ± 0.051 for the first, 1 ± 0.017 for the second.

AGTTATACAA and AGTTATAGCT are within error of each other in switch fluorescence ratio: 1.01 ± 0.037 for the first, 0.985 ± 0.014 for the second.

AGTTATAGTT and AGTTCACTAT are within error of each other in switch fluorescence ratio: 0.997 ± 0.052 for the first, 0.975 ± 0.011 for the second.
